B1: human SYCE1 full length (amino acids 1–351) (natural protein, UniProt Q8N0S2 1-351, looked up)
chain: MAGRSLTSKAEPTAGAVDRAEKAGGQDTSSQKIEDLMEMVQKLQKVGSLEPRVEVLINRINEVQQAKKKANKDLGEARTICEALQKELDSLHGEKVHLKEILSKKQETLRILRLHCQEKESEAHRKHTMLQECKERISALNLQIEEEKNKQRQLRLAFEEQLEDLMGQHKDLWDFHMPERLAKEICALDSSKEQLLKEEKLVKATLEDVKHQLCSLCGAEGPSTLDEGLFLRSQEAAATVQLFQEEHRKAEELLAAAAQRHQQLQQKCQQQQQKRQRLKEELEKHGMQVPAQAQSTQEEEAGPGDVASPKPLKGERPGAAHQAGPDVLIGQEDTLHPDLSPRGFQEIKELF
notes: synaptonemal complex central element protein 1 (SYCE1), human, full length, amino acids 1–351; also called full-length SYCE1; source: E. coli BL21(DE3), purified (amylose, anion exchange, TEV cleavage, anion exchange, SEC); not shown: His, N-terminal, cleaved; MBP, N-terminal, cleaved
B2: human SYCE1 core (amino acids 25–179) (domain or fragment, UniProt Q8N0S2 25-179, looked up)
chain: GQDTSSQKIEDLMEMVQKLQKVGSLEPRVEVLINRINEVQQAKKKANKDLGEARTICEALQKELDSLHGEKVHLKEILSKKQETLRILRLHCQEKESEAHRKHTMLQECKERISALNLQIEEEKNKQRQLRLAFEEQLEDLMGQHKDLWDFHMPE
notes: also called SYCE1 structural core; source: E. coli BL21(DE3), purified (amylose, anion exchange, TEV cleavage, anion exchange, SEC); not shown: His, N-terminal, cleaved; MBP, N-terminal, cleaved
B3: MBP-SYCE1-MBP (N- and C-terminal MBP double fusion of SYCE1 core, amino acids 25–179) (domain or fragment, human, UniProt Q8N0S2 25-179, looked up)
chain: GQDTSSQKIEDLMEMVQKLQKVGSLEPRVEVLINRINEVQQAKKKANKDLGEARTICEALQKELDSLHGEKVHLKEILSKKQETLRILRLHCQEKESEAHRKHTMLQECKERISALNLQIEEEKNKQRQLRLAFEEQLEDLMGQHKDLWDFHMPE
notes: source: E. coli BL21(DE3), purified; not shown: MBP, N-terminal, kept; MBP, C-terminal, kept
B4: SYCE1-MBP (C-terminal MBP fusion of SYCE1 core, amino acids 25–179) (domain or fragment, human, UniProt Q8N0S2 25-179, looked up)
chain: GQDTSSQKIEDLMEMVQKLQKVGSLEPRVEVLINRINEVQQAKKKANKDLGEARTICEALQKELDSLHGEKVHLKEILSKKQETLRILRLHCQEKESEAHRKHTMLQECKERISALNLQIEEEKNKQRQLRLAFEEQLEDLMGQHKDLWDFHMPE
notes: source: E. coli BL21(DE3), purified; not shown: MBP, C-terminal, kept
B5: MBP-SYCE1 (N-terminal MBP fusion of SYCE1 core, amino acids 25–179) (domain or fragment, human, UniProt Q8N0S2 25-179, looked up)
chain: GQDTSSQKIEDLMEMVQKLQKVGSLEPRVEVLINRINEVQQAKKKANKDLGEARTICEALQKELDSLHGEKVHLKEILSKKQETLRILRLHCQEKESEAHRKHTMLQECKERISALNLQIEEEKNKQRQLRLAFEEQLEDLMGQHKDLWDFHMPE
notes: pMAT11 gives a His-MBP fusion with a TEV site; source: E. coli BL21(DE3), purified; not shown: MBP, N-terminal, kept

Biological target: the molecule itself
Assay: SEC-MALS; 6–20 mg/ml loaded on Superdex 200 Increase 10/300 GL in 20 mM Tris pH 8.0, 150 mM KCl, 2 mM DTT

Protein | stoichiometry N
B1 | 2
B2 | 2
B3 | 2
B4 | 2
B5 | 2

From article PMC6823292, “Molecular structure of human synaptonemal complex protein SYCE1” (Chromosoma, 2019)
